Measurements reported in US20050175719A1, “Procyanidins for treatment and prevention of enzymatic irritation to the skin” (priority 2004, published 2005).

Test system: trypsin
Test: Inhibition of trypsin-induced cleavage of fluorescent BODIPY FL casein (EnzChek protease assay kit)
Format: biochemical
Source text: The procedure of Example 1 was independently repeated using the procyanidin-containing grape seed extract and STI, respectively, at 0.1% concentration. In addition, the procedure of Example 1 was repeated on the five individual monomer units typically found in OPC, at up to three different concentration levels.

Row | Molecule | trypsin inhibition activity (in words) (at concentrations up to 0.1%) | % trypsin inhibition (concentration 0.001 % (w/w)) | % trypsin inhibition (concentration 0.01 % (w/w)) | % trypsin inhibition (concentration 0.1 % (w/w)) | % trypsin inhibition (Table 4, concentration (w/w) 0.1 %) | % trypsin inhibition (concentration 0.0005 % (w/w)) | % trypsin inhibition (concentration 0.0025 % (w/w)) | % trypsin inhibition (concentration 0.005 % (w/w)) | % trypsin inhibition (concentration 0.025 % (w/w)) | % trypsin inhibition (concentration 0.05 % (w/w)) | % trypsin inhibition (concentration 0.075 % (w/w))
1 | Lactoferrin: commonly used antioxidant (protein, UniProt P02788 20-710, looked up) Lactotransferrin: GRRRSVQWCAVSQPEATKCFQWQRNMRKVRGPPVSCIKRDSPIQCIQAIAENRADAVTLDGGFIYEAGLAPYKLRPVAAEVYGTERQPRTHYYAVAVVKKGGSFQLNELQGLKSCHTGLRRTAGWNVPIGTLRPFLNWTGPPEPIEAAVARFFSASCVPGADKGQFPNLCRLCAGTGENKCAFSSQEPYFSYSGAFKCLRDGAGDVAFIRESTVFEDLSDEAERDEYELLCPDNTRKPVDKFKDCHLARVPSHAVVARSVNGKEDAIWNLLRQAQEKFGKDKSPKFQLFGSPSGQKDLLFKDSAIGFSRVPPRIDSGLYLGSGYFTAIQNLRKSEEEVAARRARVVWCAVGEQELRKCNQWSGLSEGSVTCSSASTTEDCIALVLKGEADAMSLDGGYVYTAGKCGLVPVLAENYKSQQSSDPDPNCVDRPVEGYLAVAVVRRSDTSLTWNSVKGKKSCHTAVDRTAGWNIPMGLLFNQTGSCKFDEYFSQSCAPGSDPRSNLCALCIGDEQGENKCVPNSNERYYGYTGAFRCLAENAGDVAFVKDVTVLQNTDGNNNEAWAKDLKLADFALLCLDGKRKPVTEARSCHLAMAPNHAVVSRMDKVERLKQVLLHQQAKFGRNGSDCPDKFCLFQSETKNLLFNDNTECLARLHGKTTYEKYLGPQYVAGITNLKKCSTSPLLEACEFLRK | no trypsin inhibition activity | −2% | −4% | 0% | – | – | – | – | – | – | –
2 | STI: pure serine protease inhibitor (soybean trypsin inhibitor) from Sigma, used as positive control (protein, UniProt P01070 25-205, looked up) Trypsin inhibitor A: DFVLDNEGNPLENGGTYYILSDITAFGGIRAAPTGNERCPLTVVQSRNELDKGIGTIISSPYRIRFIAEGHPLSLKFDSFAVIMLCVGIPTEWSVVEDLPEGPAVKIGENKDAMDGWFRLERVSDDEFNNYKLVFCPQQAEDDKCGDIGISIDHDDGTRRLVVSKNKPLVVQFQKLDKESL | – | 30% | 74% | – | 89% | 17% | 44% | 55% | 85% | 87% | 63%
